{"source": "paper doi:10.1101/2020.09.29.318733", "key": {"Kohinoor": {"molecular_target": "Kohinoor", "assay": "SEC"}, "Padron": {"molecular_target": "Padron", "assay": "SEC"}}}
{"substance": "Kohinoor", "values": [{"measurement": "stoichiometry N", "setting": "Kohinoor", "value": 2}]}
{"substance": "Padron", "values": [{"measurement": "stoichiometry N", "setting": "Padron", "value": 4}]}
